Measured values from patent publication US20180071366A1.
Numbered stars: 1 amine (or outer) side, 2 acyl side, 3 side chain; on linkers, the order of the positions; unused ones are H or OH. Bridge positions count the residues as written; N and C are the ends. Square brackets hold non-standard residues; d marks the D form. * marks the point of attachment. C20 diacid = O=C(O)CCCCCCCCCCCCCCCCCCC(=O)*; γGlu = O=C(O)[C@H](CCC(=O)[*:2])N[*:1]; Hyp = O=C(O)[C@@H]1C[C@@H](O)CN1; NMeI = CC[C@H](C)[C@H](NC)C(=O)O; Aad = N[C@@H](CCCC(=O)O)C(=O)O; Orn = NCCC[C@H](N)C(=O)O; Sar = CNCC(=O)O

Experiments:
[1] = target: recombinant human amylin 3 receptor (hAMYR3) (human), P30988; experiment: cell-based or functional assay
[2] = target: recombinant human calcitonin receptor (hCT-R) (human), P30988; experiment: cell-based or functional assay
recombinant human calcitonin receptor (hCT-R) (human), P30988, sequence (P30988 25-474): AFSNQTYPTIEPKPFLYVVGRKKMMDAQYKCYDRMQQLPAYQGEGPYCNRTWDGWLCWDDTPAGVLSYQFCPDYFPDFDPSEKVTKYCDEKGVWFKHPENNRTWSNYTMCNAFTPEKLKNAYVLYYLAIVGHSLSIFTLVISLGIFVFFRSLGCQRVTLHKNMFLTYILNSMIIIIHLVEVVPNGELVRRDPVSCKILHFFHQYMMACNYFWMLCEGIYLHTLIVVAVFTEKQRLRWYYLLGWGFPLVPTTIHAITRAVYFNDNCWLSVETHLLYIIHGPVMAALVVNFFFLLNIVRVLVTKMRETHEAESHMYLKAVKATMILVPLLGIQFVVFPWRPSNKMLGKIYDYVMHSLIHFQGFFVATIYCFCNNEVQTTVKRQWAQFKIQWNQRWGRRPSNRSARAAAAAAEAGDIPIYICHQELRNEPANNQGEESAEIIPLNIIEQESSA

recombinant human amylin 3 receptor (hAMYR3) (human), P30988, sequence (P30988 25-474, chain 1 of 2): as the sequence (P30988 25-474) above
recombinant human amylin 3 receptor (hAMYR3) (human), P30988, sequence (O60896 24-148, chain 2 of 2, further chain): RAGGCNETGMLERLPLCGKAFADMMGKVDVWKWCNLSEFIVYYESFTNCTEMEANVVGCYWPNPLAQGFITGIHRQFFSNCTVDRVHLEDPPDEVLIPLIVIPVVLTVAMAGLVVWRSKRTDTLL

| hAMYR3 EC50 [nM] (cAMP formation, 1321N1 cells expressing hAMYR3) [1] | hCT-R EC50 [nM] (cAMP formation, 1321N1 cells expressing hCT-R) [2] | Binder |
| --- | --- | --- |
| 0.035 | 0.081 | {C20 diacid-γGlu}-RDGTAT[Orn]ATERLAHFLQRSSF[Sar]A[NMeI]LSSTEVGSNT[Hyp]-NH2 (lactam 2-7; SMILES CC[C@H](C)[C@@H](C(=O)N[C@@H](CC(C)C)C(=O)N[C@@H](CO)C(=O)N[C@@H](CO)C(=O)N[C@H](C(=O)N[C@@H](CCC(=O)O)C(=O)N[C@H](C(=O)NCC(=O)N[C@@H](CO)C(=O)N[C@@H](CC(N)=O)C(=O)N[C@H](C(=O)N1C[C@H](O)C[C@H]1C(N)=O)[C@@H](C)O)C(C)C)[C@@H](C)O)N(C)C(=O)[C@H](C)NC(=O)CN(C)C(=O)[C@H](Cc1ccccc1)NC(=O)[C@H](CO)NC(=O)[C@H](CO)NC(=O)[C@H](CCCNC(=N)N)NC(=O)[C@H](CCC(N)=O)NC(=O)[C@H](CC(C)C)NC(=O)[C@H](Cc1ccccc1)NC(=O)[C@H](Cc1c[nH]cn1)NC(=O)[C@H](C)NC(=O)[C@H](CC(C)C)NC(=O)[C@H](CCCNC(=N)N)NC(=O)[C@H](CCC(=O)O)NC(=O)[C@@H](NC(=O)[C@H](C)NC(=O)[C@@H]1CCCNC(=O)C[C@H](NC(=O)[C@H](CCCNC(=N)N)NC(=O)CC[C@H](NC(=O)CCCCCCCCCCCCCCCCCCC(=O)O)C(=O)O)C(=O)NCC(=O)N[C@@H]([C@@H](C)O)C(=O)N[C@@H](C)C(=O)N[C@@H]([C@@H](C)O)C(=O)N1)[C@@H](C)O) [Compound 3] |
| 0.312 | 1.07 | {C20 diacid-γGlu}-RDPTATKATERLA[Aad]FLQRSSF[Sar]A[NMeI]LSSTEVGSNT[Hyp]-NH2 (lactam 2-7; SMILES CC[C@H](C)[C@@H](C(=O)N[C@@H](CC(C)C)C(=O)N[C@@H](CO)C(=O)N[C@@H](CO)C(=O)N[C@H](C(=O)N[C@@H](CCC(=O)O)C(=O)N[C@H](C(=O)NCC(=O)N[C@@H](CO)C(=O)N[C@@H](CC(N)=O)C(=O)N[C@H](C(=O)N1C[C@H](O)C[C@H]1C(N)=O)[C@@H](C)O)C(C)C)[C@@H](C)O)N(C)C(=O)[C@H](C)NC(=O)CN(C)C(=O)[C@H](Cc1ccccc1)NC(=O)[C@H](CO)NC(=O)[C@H](CO)NC(=O)[C@H](CCCNC(=N)N)NC(=O)[C@H](CCC(N)=O)NC(=O)[C@H](CC(C)C)NC(=O)[C@H](Cc1ccccc1)NC(=O)[C@H](CCCC(=O)O)NC(=O)[C@H](C)NC(=O)[C@H](CC(C)C)NC(=O)[C@H](CCCNC(=N)N)NC(=O)[C@H](CCC(=O)O)NC(=O)[C@@H](NC(=O)[C@H](C)NC(=O)[C@@H]1CCCCNC(=O)C[C@H](NC(=O)[C@H](CCCNC(=N)N)NC(=O)CC[C@H](NC(=O)CCCCCCCCCCCCCCCCCCC(=O)O)C(=O)O)C(=O)N2CCC[C@H]2C(=O)N[C@@H]([C@@H](C)O)C(=O)N[C@@H](C)C(=O)N[C@@H]([C@@H](C)O)C(=O)N1)[C@@H](C)O) [Compound 29] |
| 0.122 | 0.232 | {C20 diacid-γGlu}-EDGTATKATERLA[Aad]FLQRSSF[Sar]A[NMeI]PSSTEVGSNT[Hyp]-NH2 (lactam 2-7; SMILES CC[C@H](C)[C@@H](C(=O)N1CCC[C@H]1C(=O)N[C@@H](CO)C(=O)N[C@@H](CO)C(=O)N[C@H](C(=O)N[C@@H](CCC(=O)O)C(=O)N[C@H](C(=O)NCC(=O)N[C@@H](CO)C(=O)N[C@@H](CC(N)=O)C(=O)N[C@H](C(=O)N1C[C@H](O)C[C@H]1C(N)=O)[C@@H](C)O)C(C)C)[C@@H](C)O)N(C)C(=O)[C@H](C)NC(=O)CN(C)C(=O)[C@H](Cc1ccccc1)NC(=O)[C@H](CO)NC(=O)[C@H](CO)NC(=O)[C@H](CCCNC(=N)N)NC(=O)[C@H](CCC(N)=O)NC(=O)[C@H](CC(C)C)NC(=O)[C@H](Cc1ccccc1)NC(=O)[C@H](CCCC(=O)O)NC(=O)[C@H](C)NC(=O)[C@H](CC(C)C)NC(=O)[C@H](CCCNC(=N)N)NC(=O)[C@H](CCC(=O)O)NC(=O)[C@@H](NC(=O)[C@H](C)NC(=O)[C@@H]1CCCCNC(=O)C[C@H](NC(=O)[C@H](CCC(=O)O)NC(=O)CC[C@H](NC(=O)CCCCCCCCCCCCCCCCCCC(=O)O)C(=O)O)C(=O)NCC(=O)N[C@@H]([C@@H](C)O)C(=O)N[C@@H](C)C(=O)N[C@@H]([C@@H](C)O)C(=O)N1)[C@@H](C)O) [Compound 30] |
| 0.12 | 0.769 | {C20 diacid-γGlu}-RDGTAT[Orn]ATERLA[Aad]FLQRAAF[Sar]A[NMeI]LSSTEVGSNT[Hyp]-NH2 (lactam 2-7; SMILES CC[C@H](C)[C@@H](C(=O)N[C@@H](CC(C)C)C(=O)N[C@@H](CO)C(=O)N[C@@H](CO)C(=O)N[C@H](C(=O)N[C@@H](CCC(=O)O)C(=O)N[C@H](C(=O)NCC(=O)N[C@@H](CO)C(=O)N[C@@H](CC(N)=O)C(=O)N[C@H](C(=O)N1C[C@H](O)C[C@H]1C(N)=O)[C@@H](C)O)C(C)C)[C@@H](C)O)N(C)C(=O)[C@H](C)NC(=O)CN(C)C(=O)[C@H](Cc1ccccc1)NC(=O)[C@H](C)NC(=O)[C@H](C)NC(=O)[C@H](CCCNC(=N)N)NC(=O)[C@H](CCC(N)=O)NC(=O)[C@H](CC(C)C)NC(=O)[C@H](Cc1ccccc1)NC(=O)[C@H](CCCC(=O)O)NC(=O)[C@H](C)NC(=O)[C@H](CC(C)C)NC(=O)[C@H](CCCNC(=N)N)NC(=O)[C@H](CCC(=O)O)NC(=O)[C@@H](NC(=O)[C@H](C)NC(=O)[C@@H]1CCCNC(=O)C[C@H](NC(=O)[C@H](CCCNC(=N)N)NC(=O)CC[C@H](NC(=O)CCCCCCCCCCCCCCCCCCC(=O)O)C(=O)O)C(=O)NCC(=O)N[C@@H]([C@@H](C)O)C(=O)N[C@@H](C)C(=O)N[C@@H]([C@@H](C)O)C(=O)N1)[C@@H](C)O) [Compound 26] |
| 0.066 | 0.227 | {C20 diacid-γGlu}-RDGTATKATERLA[Aad]FLQRAAF[Sar]A[NMeI]LSSTEVGSNT[Hyp]-NH2 (lactam 2-7; SMILES CC[C@H](C)[C@@H](C(=O)N[C@@H](CC(C)C)C(=O)N[C@@H](CO)C(=O)N[C@@H](CO)C(=O)N[C@H](C(=O)N[C@@H](CCC(=O)O)C(=O)N[C@H](C(=O)NCC(=O)N[C@@H](CO)C(=O)N[C@@H](CC(N)=O)C(=O)N[C@H](C(=O)N1C[C@H](O)C[C@H]1C(N)=O)[C@@H](C)O)C(C)C)[C@@H](C)O)N(C)C(=O)[C@H](C)NC(=O)CN(C)C(=O)[C@H](Cc1ccccc1)NC(=O)[C@H](C)NC(=O)[C@H](C)NC(=O)[C@H](CCCNC(=N)N)NC(=O)[C@H](CCC(N)=O)NC(=O)[C@H](CC(C)C)NC(=O)[C@H](Cc1ccccc1)NC(=O)[C@H](CCCC(=O)O)NC(=O)[C@H](C)NC(=O)[C@H](CC(C)C)NC(=O)[C@H](CCCNC(=N)N)NC(=O)[C@H](CCC(=O)O)NC(=O)[C@@H](NC(=O)[C@H](C)NC(=O)[C@@H]1CCCCNC(=O)C[C@H](NC(=O)[C@H](CCCNC(=N)N)NC(=O)CC[C@H](NC(=O)CCCCCCCCCCCCCCCCCCC(=O)O)C(=O)O)C(=O)NCC(=O)N[C@@H]([C@@H](C)O)C(=O)N[C@@H](C)C(=O)N[C@@H]([C@@H](C)O)C(=O)N1)[C@@H](C)O) [Compound 31] |
| 0.325 | 0.521 | {C20 diacid-γGlu}-RDGTAT[Orn]ATERLA[Aad]FLQRGTF[Sar]A[NMeI]LSSTEVGSNT[Hyp]-NH2 (lactam 2-7; SMILES CC[C@H](C)[C@@H](C(=O)N[C@@H](CC(C)C)C(=O)N[C@@H](CO)C(=O)N[C@@H](CO)C(=O)N[C@H](C(=O)N[C@@H](CCC(=O)O)C(=O)N[C@H](C(=O)NCC(=O)N[C@@H](CO)C(=O)N[C@@H](CC(N)=O)C(=O)N[C@H](C(=O)N1C[C@H](O)C[C@H]1C(N)=O)[C@@H](C)O)C(C)C)[C@@H](C)O)N(C)C(=O)[C@H](C)NC(=O)CN(C)C(=O)[C@H](Cc1ccccc1)NC(=O)[C@@H](NC(=O)CNC(=O)[C@H](CCCNC(=N)N)NC(=O)[C@H](CCC(N)=O)NC(=O)[C@H](CC(C)C)NC(=O)[C@H](Cc1ccccc1)NC(=O)[C@H](CCCC(=O)O)NC(=O)[C@H](C)NC(=O)[C@H](CC(C)C)NC(=O)[C@H](CCCNC(=N)N)NC(=O)[C@H](CCC(=O)O)NC(=O)[C@@H](NC(=O)[C@H](C)NC(=O)[C@@H]1CCCNC(=O)C[C@H](NC(=O)[C@H](CCCNC(=N)N)NC(=O)CC[C@H](NC(=O)CCCCCCCCCCCCCCCCCCC(=O)O)C(=O)O)C(=O)NCC(=O)N[C@@H]([C@@H](C)O)C(=O)N[C@@H](C)C(=O)N[C@@H]([C@@H](C)O)C(=O)N1)[C@@H](C)O)[C@@H](C)O) [Compound 27] |
| 0.268 | 1.23 | {C20 diacid-γGlu}-RDQTAT[Orn]ATERLA[Aad]FLQRGTF[Sar]A[NMeI]LSSTEVGSNT[Hyp]-NH2 (lactam 2-7; SMILES CC[C@H](C)[C@@H](C(=O)N[C@@H](CC(C)C)C(=O)N[C@@H](CO)C(=O)N[C@@H](CO)C(=O)N[C@H](C(=O)N[C@@H](CCC(=O)O)C(=O)N[C@H](C(=O)NCC(=O)N[C@@H](CO)C(=O)N[C@@H](CC(N)=O)C(=O)N[C@H](C(=O)N1C[C@H](O)C[C@H]1C(N)=O)[C@@H](C)O)C(C)C)[C@@H](C)O)N(C)C(=O)[C@H](C)NC(=O)CN(C)C(=O)[C@H](Cc1ccccc1)NC(=O)[C@@H](NC(=O)CNC(=O)[C@H](CCCNC(=N)N)NC(=O)[C@H](CCC(N)=O)NC(=O)[C@H](CC(C)C)NC(=O)[C@H](Cc1ccccc1)NC(=O)[C@H](CCCC(=O)O)NC(=O)[C@H](C)NC(=O)[C@H](CC(C)C)NC(=O)[C@H](CCCNC(=N)N)NC(=O)[C@H](CCC(=O)O)NC(=O)[C@@H](NC(=O)[C@H](C)NC(=O)[C@@H]1CCCNC(=O)C[C@H](NC(=O)[C@H](CCCNC(=N)N)NC(=O)CC[C@H](NC(=O)CCCCCCCCCCCCCCCCCCC(=O)O)C(=O)O)C(=O)N[C@@H](CCC(N)=O)C(=O)N[C@@H]([C@@H](C)O)C(=O)N[C@@H](C)C(=O)N[C@@H]([C@@H](C)O)C(=O)N1)[C@@H](C)O)[C@@H](C)O) [Compound 28] |
